Measurements published in patent US20260266848A1, “COMPOSITIONS AND METHODS FOR DIAGNOSING AND TREATING DYSTONIA” (Duke University, priority 2023, published 2026).

B1: Ptk2 (protein, UniProt P34152 2-1052, looked up)
Focal adhesion kinase 1: AAAYLDPNLNHTPSSSTKTHLGTGMERSPGAMERVLKVFHYFESSSEPTTWASIIRHGDATDVRGIIQKIVDSHKVKHVACYGFRLSHLRSEEVHWLHVDMGVSSVREKYELAHPPEEWKYELRIRYLPKGFLNQFTEDKPTLNFFYQQVKSDYMQEIADQVDQEIALKLGCLEIRRSYWEMRGNALEKKSNYEVLEKDVGLKRFFPKSLLDSVKAKTLRKLIQQTFRQFANLNREESILKFFEILSPVYRFDKECFKCALGSSWIISVELAIGPEEGISYLTDKGCNPTHLADFNQVQTIQYSNSEDKDRKGMLQLKIAGAPEPLTVTAPSLTIAENMADLIDGYCRLVNGATQSFIIRPQKEGERALPSIPKLANSEKQGMRTHAVSVSETDDYAEIIDEEDTYTMPSTRDYEIQRERIELGRCIGEGQFGDVHQGVYLSPENPALAVAIKTCKNCTSDSVREKFLQEALTMRQFDHPHIVKLIGVITENPVWIIMELCTLGELRSFLQVRKYSLDLASLILYAYQLSTALAYLESKRFVHRDIAARNVLVSSNDCVKLGDFGLSRYMEDSTYYKASKGKLPIKWMAPESINFRRFTSASDVWMFGVCMWEILMHGVKPFQGVKNNDVIGRIENGERLPMPPNCPPTLYSLMTKCWAYDPSRRPRFTELKAQLSTILEEEKVQQEERMRMESRRQATVSWDSGGSDEAPPKPSRPGYPSPRSSEGFYPSPQHMVQTNHYQVSGYPGSHGIPAMAGSIYQGQASLLDQTELWNHRPQEMSMWQPSVEDSAALDLRGMGQVLPPHLMEERLIRQQQEMEEDQRWLEKEERFLKPDVRLSRGSIDREDGSFQGPTGNQHIYQPVGKPDPAAPPKKPPRPGAPGHLSNLSSISSPADSYNEGVKLQPQEISPPPTANLDRSNDKVYENVTGLVKAVIEMSSKIQPAPPEEYVPMVKEVGLALRTLLATVDETIPALPASTHREIEMAQKLLNSDLGELISKMKLAQQYVMTSLQQEYKKQMLTAAHALAVDAKNLLDVIDQARLKMLGQTRPH
B2: Dbi (protein, UniProt P31786 2-87, looked up)
Acyl-CoA-binding protein: SQAEFDKAAEEVKRLKTQPTDEEMLFIYSHFKQATVGDVNTDRPGLLDLKGKAKWDSWNKLKGTSKESAMKTYVEKVDELKKKYGI
B3: Pdia3 (protein, UniProt P27773 25-505, looked up)
Protein disulfide-isomerase A3: SDVLELTDENFESRVSDTGSAGLMLVEFFAPWCGHCKRLAPEYEAAATRLKGIVPLAKVDCTANTNTCNKYGVSGYPTLKIFRDGEEAGAYDGPRTADGIVSHLKKQAGPASVPLRTEEEFKKFISDKDASVVGFFRDLFSDGHSEFLKAASNLRDNYRFAHTNIESLVKEYDDNGEGITIFRPLHLANKFEDKTVAYTEKKMTSGKIKKFIQDSIFGLCPHMTEDNKDLIQGKDLLTAYYDVDYEKNAKGSNYWRNRVMMVAKKFLDAGHKLNFAVASRKTFSHELSDFGLESTTGEVPVVAIRTAKGEKFVMQEEFSRDGKALEQFLQEYFDGNLKRYLKSEPIPESNEGPVKVVVAENFDDIVNEEDKDVLIEFYAPWCGHCKNLEPKYKELGEKLSKDPNIVIAKMDATANDVPSPYEVKGFPTIYFSPANKKLTPKKYEGGRELNDFISYLQREATNPPIIQEEKPKKKKKAQEDL
B4: Atg7 (protein, UniProt Q9D906 1-698, looked up)
Ubiquitin-like …: MGDPGLAKLQFAPFNSALDVGFWHELTQKKLNEYRLDEAPKDIKGYYYNGDSAGLPTRLTLEFSAFDMSASTPAHCCPAMGTLHNTNTLEAFKTADKKLLLEQSANEIWEAIKSGAALENPMLLNKFLLLTFADLKKYHFYYWFCCPALCLPESIPLIRGPVSLDQRLSPKQIQALEHAYDDLCRAEGVTALPYFLFKYDDDTVLVSLLKHYSDFFQGQRTKITVGVYDPCNLAQYPGWPLRNFLVLAAHRWSGSFQSVEVLCFRDRTMQGARDVTHSIIFEVKLPEMAFSPDCPKAVGWEKNQKGGMGPRMVNLSGCMDPKRLAESSVDLNLKLMCWRLVPTLDLDKVVSVKCLLLGAGTLGCNVARTLMGWGVRHVTFVDNAKISYSNPVRQPLYEFEDCLGGGKPKALAAAERLQKIFPGVNARGFNMSIPMPGHPVNFSDVTMEQARRDVEQLEQLIDNHDVIFLLMDTRESRWLPTVIAASKRKLVINAALGFDTFVVMRHGLKKPKQQGAGDLCPSHLVAPADLGSSLFANIPGYKLGCYFCNDVVAPGDSTRDRTLDQQCTVSRPGLAVIAGALAVELMVSVLQHPEGGYAIASSSDDRMNEPPTSLGLVPHQIRGFLSRFDNVLPVSLAFDKCTACSPKVLDQYEREGFTFLAKVFNSSHSFLEDLTGLTLLHQETQAAEIWDMSDEETV
B5: Alad (protein, UniProt P10518 1-330, looked up)
Delta-aminolevulinic acid …: MHHQSVLHSGYFHPLLRSWQTAASTVSASNLIYPIFVTDVPDDVQPIASLPGVARYGVNQLEEMLRPLVEAGLRCVLIFGVPSRVPKDEQGSAADSEDSPTIEAVRLLRKTFPSLLVACDVCLCPYTSHGHCGLLSENGAFLAEESRQRLAEVALAYAKAGCQVVAPSDMMDGRVEAIKAALLKHGLGNRVSVMSYSAKFASCFYGPFRDAAQSSPAFGDRRCYQLPPGARGLALRAVARDIQEGADMLMVKPGLPYLDMVREVKDKHPELPLAVYQVSGEFAMLWHGAQAGAFDLRTAVLETMTAFRRAGADIIITYFAPQLLKWLKEE
B6: Cxadr (protein, UniProt P97792 20-365, looked up)
Coxsackievirus and adenovirus …: LSITTPEQRIEKAKGETAYLPCKFTLSPEDQGPLDIEWLISPSDNQIVDQVIILYSGDKIYDNYYPDLKGRVHFTSNDVKSGDASINVTNLQLSDIGTYQCKVKKAPGVANKKFLLTVLVKPSGTRCFVDGSEEIGNDFKLKCEPKEGSLPLQFEWQKLSDSQTMPTPWLAEMTSPVISVKNASSEYSGTYSCTVQNRVGSDQCMLRLDVVPPSNRAGTIAGAVIGTLLALVLIGAILFCCHRKRREEKYEKEVHHDIREDVPPPKSRTSTARSYIGSNHSSLGSMSPSNMEGYSKTQYNQVPSEDFERAPQSPTLAPAKVAAPNLSRMGAVPVMIPAQSKDGSIV
B7: Adamts5 (protein, UniProt Q9R001 262-930, looked up)
A disintegrin and …: SISRARQVELLLVADSSMARMYGRGLQHYLLTLASIANRLYSHASIENHIRLAVVKVVVLTDKDTSLEVSKNAATTLKNFCKWQHQHNQLGDDHEEHYDAAILFTREDLCGHHSCDTLGMADVGTICSPERSCAVIEDDGLHAAFTVAHEIGHLLGLSHDDSKFCEENFGTTEDKRLMSSILTSIDASKPWSKCTSATITEFLDDGHGNCLLDLPRKQILGPEELPGQTYDATQQCNLTFGPEYSVCPGMDVCARLWCAVVRQGQMVCLTKKLPAVEGTPCGKGRVCLQGKCVDKTKKKYYSTSSHGNWGSWGPWGQCSRSCGGGVQFAYRHCNNPAPRNSGRYCTGKRAIYRSCSVTPCPPNGKSFRHEQCEAKNGYQSDAKGVKTFVEWVPKYAGVLPADVCKLTCRAKGTGYYVVFSPKVTDGTECRPYSNSVCVRGRCVRTGCDGIIGSKLQYDKCGVCGGDNSSCTKIIGTFNKKSKGYTDVVRIPEGATHIKVRQFKAKDQTRFTAYLALKKKTGEYLINGKYMISTSETIIDINGTVMNYSGWSHRDDFLHGMGYSATKEILIVQILATDPTKALDVRYSFFVPKKTTQKVNSVISHGSNKVGPHSTQLQWVTGPWLACSRTCDTGWHTRTVQCQDGNRKLAKGCLLSQRPSAFKQCLLKKC
B8: Extl2 (protein, UniProt Q9ES89 1-330, looked up)
Exostosin-like 2: MMRGCHICKLPGRVMGIRVLRFSLVVILVLLLVAGALTNLLPNIKEDKMLTLRREIKSPSKSALDSFTLIMQTYNRTDLLLRLLNHYQAVPSLHKVIVVWNNVGEKGPEELWNSLGPHPIPVIFKPQTANKMRNRLQVFPEVETNAVLMVDDDTLISAQDLVFAFSIWQQFPDQIIGFVPRKHVSTSSGIYSYGGFELQTPGPGNGDQYSMVLIGASFFNSKYLELFQKQPAAVHALIDETQNCDDIAMNFLVTRHTGKPSGIFVKPINMVNLEKETNGYSGMWHRAEHFLQRSYCINKLVNIYDGMPLKYSNIMISQFGFPYANHKSKM
B9: Nap1l4 (protein, UniProt Q78ZA7 2-375, looked up)
Nucleosome assembly protein …: AENSLSDGGPADSVEAAKNASNTEKLTDQVMQNPQVLAALQERLDNVSHTPSSYIETLPKAVKRRINALKQLQVRCAHIEAKFYEEVHDLERKYAALYQPLFDKRREFITGDVEPTDAESAWHSENEEEDKLAGDMKNKVVIAEKEAATVEELNPKGIPEFWFTIFRNVDMLSELVQEYDEPILKHLQDIKVKFSDPGQPMSFVLEFHFEPNDYFTNPVLTKTYKMKSEPDKADPFSFEGPEIVDCDGCTIDWKKGKNVTVKTIKKKQKHKGRGTVRTITKQVPNESFFNFFSPLKASGDGESLDEDSEFTLASDFEIGHFFRERIVPRAVLYFTGEAIEDDDNFEEGEEGEEEELEGDEEGEDEDDADVNPKV

tested on: DYT-TOR1A MEF EVs; experiment: Quantitative LC-MS/MS proteomics of EVs from drug-treated DYT-TOR1A MEF cultures (ritonavir, salubrinal); type: cell-based, mouse; parameters: key to RTV Corrective Direction / RTV Corrective Direction, Grwd1 / RTV Corrective Direction, Srrm2 / RTV Corrective Direction, Rbm17 / RTV Corrective Direction, Dcaf8 / RTV Corrective Direction, Edil3 / RTV Corrective Direction, Timp3 / RTV Corrective Direction, Heatr3 / RTV Corrective Direction, Brd4 / RTV Corrective Direction, P3h4 / RTV Corrective Direction, Pacsin3 / RTV Corrective Direction, Naa50 / RTV Corrective Direction, Lpar6 / RTV Corrective Direction, Ndrg1 / RTV Corrective Direction, Kntc1 / RTV Corrective Direction, Cdk11b / RTV Corrective Direction, Sumo1 / RTV Corrective Direction, Lsm4 / RTV Corrective Direction, Hmga2 / RTV Corrective Direction, Cstf1 / RTV Corrective Direction, Tes / RTV Corrective Direction, Sbno1 / RTV Corrective Direction, Unc119b / RTV Corrective Direction, Cfdp1 / RTV Corrective Direction, Sec61b: YES = protein abundance effect opposite to DYT/WT; settings: EV protein abundance, DYT + RTV (ritonavir) vs DYT, direction compared with DYT/WT

Row | Molecule | RTV Corrective Direction
1 | B1 | YES
2 | B2 | YES
3 | B3 | YES
4 | B4 | YES
5 | B5 | YES
6 | B6 | YES
7 | B7 | YES
8 | B8 | YES
9 | B9 | YES

same assay, conditions: EV protein abundance, ritonavir (RTV)-treated DYT vs DYT

Row | Molecule | DYT + RTV/DYT Cohen's d
10 | B1 | 0.10
11 | B2 | 0.91
12 | B3 | 0.37
13 | B4 | 0.61
14 | B5 | 1.57
15 | B6 | 3.88
16 | B7 | 0.76
17 | B8 | 0.12
18 | B9 | 5.74

tested on: WT MEF EVs; experiment: Quantitative LC-MS/MS proteomics of EVs from ISRIB-treated WT MEF cultures; type: cell-based, mouse; parameters: key to ISRIB and DYT Parallel Direction / ISRIB and DYT Parallel Direction, Ctdsp1 / ISRIB and DYT Parallel Direction, Pcdh19 / ISRIB and DYT Parallel Direction, Tspan7 / ISRIB and DYT Parallel Direction, Myo1e / ISRIB and DYT Parallel Direction, Plpp3 / ISRIB and DYT Parallel Direction, Sh3bp4 / ISRIB and DYT Parallel Direction, Dnajc7 / ISRIB and DYT Parallel Direction, Drg1 / ISRIB and DYT Parallel Direction, Maea: YES = protein abundance effect similar to DYT/WT; settings: EV protein abundance, ISRIB-treated WT vs WT

Row | Molecule | WT + ISRIB/WT Cohen's d
19 | B1 | −3.26
20 | B2 | −2.44
21 | B3 | 0.39
22 | B4 | −2.35
23 | B5 | −1.50
24 | B6 | 1.72
25 | B7 | −2.06
26 | B8 | −1.42
27 | B9 | 2.43

same assay, conditions: EV protein abundance, WT + ISRIB vs WT, direction compared with DYT/WT

Row | Molecule | ISRIB and DYT Parallel Direction
28 | B1 | YES
29 | B2 | YES
30 | B3 | YES
31 | B4 | YES
32 | B5 | YES
33 | B7 | YES
34 | B8 | YES
